# Test results reported in article doi:10.1101/2023.10.30.564668 (bioRxiv, 2023).
# Biological target: RABV-G domain III (Rabies virus, strain CVS-11 (GenBank …, stabilised))
# Test: crystal structure
binder,measurement,value
CR57 diabody (other) VH: EVQLVQSGAEVKKPGSSVKVSCKASGGTFNRYTVNWVRQAPGQGLEWMGGIIPIFGTANYAQRFQGRLTITADESTSTAYMELSSLRSDDTAVYFCARENLDNSGTYYYFSGWFDPWGQGTLVTVSS VL: QSALTQPRSVSGSPGQSVTISCTGTSSDIGGYNFVSWYQQHPGKAPKLMIYDATKRPSGVPDRFSGSKSGNTASLTISGLQAEDEADYYCCSYAGDYTPGVVFGGGTKLTVL,stoichiometry N,2 domain III per diabody
